Data: article PMC8249616, “Structural basis of the activation of c-MET receptor” (Nature Communications, 2021)

B1: NK1 (human HGF amino acids 31-209) (ligand, UniProt P14210 31-209, looked up)
chain: GQRKRRNTIHEFKKSAKTTLIKIDPALKIKTKKVNTADQCANRCTRNKGLPFTCKAFVFDKARKQCLWFPFNSMSSGVKKEFGHEFDLYENKDYIRNCIIGKGRSYKGTVSITKSGIKCQPWSSMIPHEHSFLPSSYRGKDLQENYCRNPRGEEGGPWCFTSNPEVRYEVCDIPQCSEV
notes: human HGF amino acids 31-209 (N and K1 domains), after an HR3C site; source: E. coli Rosetta-gami 2 (DE3), purified (Ni Sepharose, SEC); not shown: DsBC, N-terminal, cleaved; His6, N-terminal, cleaved

Columns and labels:
[1] = biological target: the molecule itself; test: cryo-EM structure; c-MET927-LZ mixed with NK1 and heparin (Tinzaparin sodium) 1:1:4, complex isolated by SEC in 20 mM Hepes pH 7.5, 100 mM NaCl; 2 mM fluorinated Fos-Choline-8 added before freezing
[2] = biological target: B1; test: as above; conditions: both partners purified
[3] = biological target: the molecule itself; test: SEC; c-MET927 or c-MET927-LZ alone and mixed with HGF in vitro (Supplementary Fig. 1); whether heparin was added is not told
[4] = biological target: T1, full-length human hepatocyte growth factor (HGF), wild type (human, UniProt P14210 32-728); test: as above; conditions: both partners purified
T1 construct: signal peptide in the construct; full-length human HGF followed by an HR3C site and a His6 tag; written here as one chain; also called HGF WT; HGF I; source: HEK293F infected with baculovirus (pEZT-BM), 5% FBS in the medium, secreted, purified (cation exchange, SEC)
T1 sequence (P14210 32-728): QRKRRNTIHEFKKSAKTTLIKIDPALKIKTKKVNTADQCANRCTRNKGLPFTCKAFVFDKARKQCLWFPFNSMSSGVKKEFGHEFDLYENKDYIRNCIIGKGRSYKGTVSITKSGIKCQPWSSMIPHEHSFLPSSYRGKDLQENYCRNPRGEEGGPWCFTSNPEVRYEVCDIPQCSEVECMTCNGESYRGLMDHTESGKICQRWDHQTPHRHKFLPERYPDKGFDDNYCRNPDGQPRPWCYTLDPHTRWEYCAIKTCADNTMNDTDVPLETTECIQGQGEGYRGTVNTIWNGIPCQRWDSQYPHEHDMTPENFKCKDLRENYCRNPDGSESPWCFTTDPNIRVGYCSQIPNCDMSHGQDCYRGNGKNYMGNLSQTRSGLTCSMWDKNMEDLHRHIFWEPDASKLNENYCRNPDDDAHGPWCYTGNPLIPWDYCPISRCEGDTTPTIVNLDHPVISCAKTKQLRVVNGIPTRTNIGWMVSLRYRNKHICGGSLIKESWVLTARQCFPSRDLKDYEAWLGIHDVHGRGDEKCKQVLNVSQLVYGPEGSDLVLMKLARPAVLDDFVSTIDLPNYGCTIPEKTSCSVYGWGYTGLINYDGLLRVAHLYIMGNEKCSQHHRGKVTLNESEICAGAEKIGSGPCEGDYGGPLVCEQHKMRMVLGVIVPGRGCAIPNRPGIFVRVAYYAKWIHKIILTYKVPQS

Row | Binder | stoichiometry N [1] | binding result [2] | stoichiometry N [3] | binding result [4]
1 | B1 | 2 | – | – | –
2 | c-MET927-LZ (c-MET 1-927, GGGGS linker, GCN4 leucine zipper), tags cleaved (receptor, signal peptide in the construct; linker; written here as one chain; also called c-MET-LZ; c-MET I; source: HEK293F infected with baculovirus (pEZT-BM), secreted, purified (Ni resin, SEC); not shown: Tsi3, C-terminal, cleaved; His6, C-terminal, cleaved) not shown | – | binds | 2 | binds
